The record followed here is the supplement of paper PMC10567573.

B1: NP_002788.1 (parent)
chain: DGWIRVSSDNVADLHEKYSGSTP
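Note: lentivirally expressed fusion library, cells FACS-sorted into six equal-sized GFP/DsRed ratio bins, PSI computed from sequencing read fractions per bin weighted by bin number.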

In the series the parent is B1. The series is described as follows: protein stability index of a GFP-peptide fusion (GPS, HEK-293T) (PSI 1-6); higher = more stable. Particulars: c terminus: native.
Take DGWIRVSSDFVADLHEKYSGSTP: the protein stability index turned out to be 2.4.

Consider DGWIRVSSDTVADLHEKYSGSTP, for which the protein stability index is 2.37.

Consider DGWIRVSSDHVADLHEKYSGSTP, for which the protein stability index amounted to 2.22.

Regarding DGWIRVSSDYVADLHEKYSGSTP, the protein stability index is 2.36.

Take DGWIRVSSDAVADLHEKYSGSTP: the protein stability index is 1.84.

Regarding DGWIRVSSDPVADLHEKYSGSTP, the protein stability index stood at 2.58.

Regarding DGWIRVSSDDVADLHEKYSGSTP, the protein stability index is 2.54.

Consider DGWIRVSSDIVADLHEKYSGSTP, for which the protein stability index is 2.28.

In the case of DGWIRVSSDKVADLHEKYSGSTP, the protein stability index turned out to be 2.28.

With DGWIRVSSDRVADLHEKYSGSTP, the protein stability index worked out at 2.04.

In the case of DGWIRVSSDMVADLHEKYSGSTP, the protein stability index is 2.67.

As to DGWIRVSSDLVADLHEKYSGSTP, the protein stability index was determined as 2.69.

For the variant DGWIRVSSDSVADLHEKYSGSTP, the protein stability index was determined as 2.17.

Turning to DGWIRVSSDGVADLHEKYSGSTP, the protein stability index is 2.86.

For the variant DGWIRVSSDVVADLHEKYSGSTP, the protein stability index was 2.39.

Consider DGWSRVSSDNVADLHEKYSGSTP, for which the protein stability index amounted to 3.47.

For DGWDRVSSDNVADLHEKYSGSTP, the protein stability index was 4.94.

As to DGWGRVSSDNVADLHEKYSGSTP, the protein stability index turned out to be 4.49.

For the variant DGWVRVSSDNVADLHEKYSGSTP, the protein stability index worked out at 2.17.

For the variant DGWLRVSSDNVADLHEKYSGSTP, the protein stability index was determined as 3.18.

With DGWQRVSSDNVADLHEKYSGSTP, the protein stability index stood at 2.94.

In the case of DGWFRVSSDNVADLHEKYSGSTP, the protein stability index is 4.14.

Consider DGWWRVSSDNVADLHEKYSGSTP, for which the protein stability index was 3.58.

For DGWERVSSDNVADLHEKYSGSTP, the protein stability index was found to be 3.9.

As to DGWCRVSSDNVADLHEKYSGSTP, the protein stability index worked out at 3.19.

Consider DGWMRVSSDNVADLHEKYSGSTP, for which the protein stability index was determined as 3.39.

With DGWNRVSSDNVADLHEKYSGSTP, the protein stability index was determined as 4.94.

DGWKRVSSDNVADLHEKYSGSTP: the protein stability index was 3.67.

As to DGWPRVSSDNVADLHEKYSGSTP, the protein stability index came to 5.29.

DGWHRVSSDNVADLHEKYSGSTP: the protein stability index was 4.58.

On to DGWARVSSDNVADLHEKYSGSTP, for which the protein stability index came out at 2.92.

For DGWTRVSSDNVADLHEKYSGSTP, the protein stability index worked out at 2.81.

For the variant DGWRRVSSDNVADLHEKYSGSTP, the protein stability index worked out at 3.53.

In the case of DGWYRVSSDNVADLHEKYSGSTP, the protein stability index stood at 4.36.

As to DSWIRVSSDNVADLHEKYSGSTP, the protein stability index is 2.13.

In the case of DTWIRVSSDNVADLHEKYSGSTP, the protein stability index was 2.09.

As to DYWIRVSSDNVADLHEKYSGSTP, the protein stability index is 2.78.

In the case of DFWIRVSSDNVADLHEKYSGSTP, the protein stability index was determined as 2.47.

As for DWWIRVSSDNVADLHEKYSGSTP, the protein stability index was 2.27.

With DEWIRVSSDNVADLHEKYSGSTP, the protein stability index stood at 2.51.

Regarding DKWIRVSSDNVADLHEKYSGSTP, the protein stability index amounted to 2.13.

With DHWIRVSSDNVADLHEKYSGSTP, the protein stability index amounted to 2.51.

Regarding DQWIRVSSDNVADLHEKYSGSTP, the protein stability index is 2.56.

As to DLWIRVSSDNVADLHEKYSGSTP, the protein stability index is 2.54.

DDWIRVSSDNVADLHEKYSGSTP: the protein stability index was found to be 2.9.

Take DRWIRVSSDNVADLHEKYSGSTP: the protein stability index came to 2.97.

DVWIRVSSDNVADLHEKYSGSTP: the protein stability index is 2.49.

On to DPWIRVSSDNVADLHEKYSGSTP, for which the protein stability index is 2.71.

Turning to DNWIRVSSDNVADLHEKYSGSTP, the protein stability index amounted to 2.42.

Consider DMWIRVSSDNVADLHEKYSGSTP, for which the protein stability index amounted to 2.36.

As for DAWIRVSSDNVADLHEKYSGSTP, the protein stability index is 2.25.

Turning to DCWIRVSSDNVADLHEKYSGSTP, the protein stability index was 2.21.

Regarding DGWIRVSSDNHADLHEKYSGSTP, the protein stability index was 2.29.

Turning to DGWIRVSSDNDADLHEKYSGSTP, the protein stability index is 2.54.

Take DGWIRVSSDNAADLHEKYSGSTP: the protein stability index turned out to be 2.53.

Consider DGWIRVSSDNEADLHEKYSGSTP, for which the protein stability index is 1.92.

As for DGWIRVSSDNCADLHEKYSGSTP, the protein stability index is 2.41.

On to DGWIRVSSDNFADLHEKYSGSTP, for which the protein stability index was 2.37.

For the variant DGWIRVSSDNGADLHEKYSGSTP, the protein stability index worked out at 2.7.

Turning to DGWIRDSSDNVADLHEKYSGSTP, the protein stability index was found to be 4.78.

As for DGWIRSSSDNVADLHEKYSGSTP, the protein stability index amounted to 3.41.

As for DGWIRASSDNVADLHEKYSGSTP, the protein stability index worked out at 2.27.

In the case of DGWIRHSSDNVADLHEKYSGSTP, the protein stability index was found to be 2.18.

Consider DGWIRYSSDNVADLHEKYSGSTP, for which the protein stability index was determined as 2.48.

As for DGWIRQSSDNVADLHEKYSGSTP, the protein stability index was found to be 2.41.

With DGWIRLSSDNVADLHEKYSGSTP, the protein stability index is 2.78.

As to DGWIRNSSDNVADLHEKYSGSTP, the protein stability index came out at 2.86.

On to DGWIRRSSDNVADLHEKYSGSTP, for which the protein stability index amounted to 2.13.

For DGWIRISSDNVADLHEKYSGSTP, the protein stability index amounted to 2.21.

Regarding DGWIRCSSDNVADLHEKYSGSTP, the protein stability index came to 3.

DGWIRESSDNVADLHEKYSGSTP: the protein stability index stood at 3.77.

For the variant DGWIRWSSDNVADLHEKYSGSTP, the protein stability index stood at 3.04.

Regarding DGWIRFSSDNVADLHEKYSGSTP, the protein stability index is 2.77.

DGWIRGSSDNVADLHEKYSGSTP: the protein stability index amounted to 4.34.

Turning to DGWIRPSSDNVADLHEKYSGSTP, the protein stability index was 5.05.

With DGWIRTSSDNVADLHEKYSGSTP, the protein stability index was determined as 3.15.

As for DGWIRMSSDNVADLHEKYSGSTP, the protein stability index was 2.31.

In the case of DGWIRKSSDNVADLHEKYSGSTP, the protein stability index came to 2.16.

For DGWIRVSHDNVADLHEKYSGSTP, the protein stability index is 2.57.

On to DGWIRVSDDNVADLHEKYSGSTP, for which the protein stability index amounted to 2.99.

With DGWIRVSPDNVADLHEKYSGSTP, the protein stability index turned out to be 3.95.

On to DGWIRVSKDNVADLHEKYSGSTP, for which the protein stability index was 2.68.

Take DGWIRVSTDNVADLHEKYSGSTP: the protein stability index came to 2.87.

On to DGWIRVSQDNVADLHEKYSGSTP, for which the protein stability index came out at 2.54.

On to DGWIRVSNDNVADLHEKYSGSTP, for which the protein stability index was 2.31.

Turning to DGWIRVSFDNVADLHEKYSGSTP, the protein stability index worked out at 2.36.

Take DGWIRVSMDNVADLHEKYSGSTP: the protein stability index is 2.41.

DGWIRVSIDNVADLHEKYSGSTP: the protein stability index worked out at 2.32.

In the case of DGWIRVSYDNVADLHEKYSGSTP, the protein stability index stood at 2.14.

DGWIRVSCDNVADLHEKYSGSTP: the protein stability index came to 2.13.

Regarding DGWIRVSLDNVADLHEKYSGSTP, the protein stability index is 2.28.

DGWIRVSADNVADLHEKYSGSTP: the protein stability index was determined as 2.31.

On to DGWIRVSEDNVADLHEKYSGSTP, for which the protein stability index was found to be 2.23.

Consider DGWIRVSVDNVADLHEKYSGSTP, for which the protein stability index worked out at 2.42.

Consider DGWIRVSRDNVADLHEKYSGSTP, for which the protein stability index turned out to be 2.31.

As to DGWIRVSGDNVADLHEKYSGSTP, the protein stability index came to 2.42.

For the variant DGWIRVSWDNVADLHEKYSGSTP, the protein stability index was determined as 2.23.
